Positions count from the first letter of the chain named.
B1: WT inhibitor-1: wild-type human protein phosphatase-1 inhibitor-1 (SEQ ID NO:13) overexpressed by recombinant adenovirus (protein, listed as Homo sapiens)
chain: MEQDNSPRKIQFTVPLLEPHLDPEAAEQIRRRRPTPATLVLTSDQSSPEIDEDRIPNPHLKSTLAMSPRQRKKMTRITPTMKELQMMVEHHLGQQQQGEEPEGAAESTGTQESRPPGIPDTEVESRLGTSGTAKKTAECIPKTHERGSKEPSTKEPSTHIPPLDSKGANSV
B2: D147 inhibitor-1: human inhibitor-1 with aspartic acid for glycine at position 147 (SEQ ID NO:14), overexpressed by recombinant adenovirus (protein, listed as Homo sapiens)
chain: B1 chain with G147D

Tests used:
PLN = experiment: Western blotting of PLN phosphorylation in infected cardiomyocytes; type: cell-based, rat
adult rat cardiomyocytes = experiment: Contractile parameter measurements in adenovirus-infected myocytes; type: cell-based; details: for contractility response to isoproterenol (fractional shortening, contraction, relaxation): adenovirus-infected cardiomyocytes; for cellular contractility (fractional shortening, contracting velocity, relaxing velocity): basal conditions, overexpression by adenovirus, 24 h
Protocol: Adult rat ventricular myocytes were isolated and cultured. Hearts from adult male Sprague-Dawley rats (8 wk old) were perfused with modified Krebs-Henseleit buffer (KHB) (118 mM NaCl, 4.8 mM KCl, 25 mM HEPES, 1.25 mM K2HPO4, 1.25 mM MgSO4, 11 mM glucose, 5 mM taurine, and 10 mM butanedione monoxime; pH 7.4) for 5 min. Subsequently, hearts were perfused with an enzyme solution [KHB containing 0.7 mg/ml collagenase type II (263 U/mg), 0.2 mg/ml hyaluronidase, 0.1% BSA, and 25 μM Ca]. Ten and 15 min later, 25 and 50 μM Ca, respectively, were added to the perfusion buffer, so that the Ca concentration was raised to 100 μM, and perfusion was continued for another 5 min. Finally, left ventricular tissue was excised, minced, pipette dissociated, and filtered through a […] screen. Cells were harvested and resuspended in KM including 1 mM Ca and 1% BSA. After a brief centrifugation, the cells were resuspended in KHB including 1.8 mM Ca and 1% BSA, centrifuged briefly again, and resuspended in Dulbecco's modified Eagle's medium containing 2 mg/ml BSA, 2 mM L-camitine, 5 mM creatine, 5 mM taurine, 1.8 mM Ca, 100 IU/ml penicillin, and 100 μg/ml streptomycin. Cells were then counted and plated on laminin-coated glass coverslips or dishes.
(§1) Recombinant adenovirus carrying empty vector, wild-type (WT) G147 inhibitor-1, or D147 inhibitor-1 was generated by using the Adeno-X expression system kit (Clontech, Mountain View, Calif.). All of the adenoviruses also expressed GFP as an indicator of transfection efficiency. Two hours after isolation and culture, myocytes seeded on coverslips or dishes were infected with adenovirus in diluted media, at a multiplicity of infection of 500, for 2 h before the addition of a suitable volume of culture media. Twenty-four hours later, the myocytes were washed in KHB including 1 mM Ca and harvested for quantitative immunoblotting or use in the experiments outlined below.
Myocytes that adhered to the coverslips were bathed in temperature (37° C.)—equilibrated KHB containing 1 mM Ca for 20 min. The myocyte suspension was then placed in a Plexiglas chamber, which was positioned on the stage of an inverted epifluorescence microscope (Diaphot 200; Nikon, Tokyo, Japan). Myocyte contraction was field-stimulated by a Grass S5 stimulator (0.5 Hz, square. waves; Grass Technologies, An Astro-Med, Inc., West Warwick, R.I., USA), and contractions were videotaped and digitized on a computer. A video edge motion detector (Crescent Electronics, Windsor, ON, Canada) was used to measure myocyte length and cell shortening, from which the percent fractional shortening (% FS) and maximal rates of contraction and relaxation (±dL/dt) were calculated. To investigate the response of adult rat cardiomyocytes to isoproterenol, a maximal concentration of isoproterenol (100 nM) was added to the KHB (including 1 mM Ca) in the Plexiglas chamber, and the above-mentioned measurements were repeated. All data were analyzed using software from Felix 1.1 software (Photon Technology International, Birmingham, N.J., USA) and IonWizard (IonOptix Corp., Milton, Mass., USA).

troponin I = experiment: Western blotting of troponin I phosphorylation in infected cardiomyocytes; type: cell-based; details: adult rat cardiomyocytes
Protocol: as §1
(§2) Alterations in the phosphorylation and/or total level of proteins were analyzed from whole heart homogenates, with the exception of MyBP-C, which was analyzed from a myofibril protein preparation, using Western blotting. 2-70 μg of protein were separated on polyacrylamide gels (6-15%) and transferred to nitrocellulose membranes. The membranes were incubated with primary antibodies, which were visualized by peroxidase-conjugated secondary antibodies (Amersham Biosciences) and enhanced chemiluminescence (Supersignal West Pico Chemiluminescent, Pierce). The bands were then quantified with densitometry, using ImageQuant 5.2 (GE Healthcare, Little Chalfont, UK). […]

RyR = experiment: Western blotting of RyR phosphorylation in infected cardiomyocytes; type: cell-based; details: adult rat cardiomyocytes
Protocol: as §1, §2

[1] = test system: major regulatory proteins related to cardiac calcium homeostasis; experiment: Quantitative immunoblotting of calcium homeostasis regulatory proteins after adenoviral gene transfer; type: cell-based, rat; details: 24 h post-transfection
Source text: FIG. 2. Isolated adult rat cardiomyocytes were infected with adenoviruses expressing GFP as control (empty), G147 inhibitor-1 or D147 inhibitor-1. (A) Images of infected cardiomyocytes and GFP expression. (B) Representative western blots display expression levels of inhibitor-1, SERCA 2a, PLN, CSQ, and L-type Ca-channel (LTCC).
as §1

Molecule | effect of isoproterenol on phosphorylation of PLN in control cells (PLN; control cells) | effect of isoproterenol on contractility of control-virus cardiomyocytes (adult rat cardiomyocytes; 100 nM isoproterenol, control virus) | effect of isoproterenol treatment on troponin I phosphorylation (troponin I) | effect of isoproterenol treatment on RyR phosphorylation (RyR) | level of phosphorylated PLN on serine 16 depressed (PLN; in the presence of isoproterenol) | phosphorylation of PLN (PLN; in the presence of isoproterenol, versus control cells) | contractility response to isoproterenol (fractional shortening, contraction, relaxation) (adult rat cardiomyocytes; 100 nM isoproterenol) | cellular contractility (fractional shortening, contracting velocity, relaxing velocity) (adult rat cardiomyocytes) | levels of the major regulatory proteins related to cardiac calcium homeostasis [1] | contractility response at lower isoproterenol dose (adult rat cardiomyocytes; 10 nM isoproterenol) | contractile parameters depressed compared with WT inhibitor-1-stimulated cells (adult rat cardiomyocytes; 100 nM isoproterenol)
CC(C)NCC(O)c1ccc(O)c(O)c1 (centres unmarked) [isoproterenol, reference compound] | increased | enhanced contractility | increased | increased | – | – | – | – | – | – | –
B1 | – | – | – | – | ~50% | similarly increased | enhanced contractility | did not alter | did not alter | – | –
B2 | – | – | – | – | – | – | significantly blunted | did not alter | did not alter | differences similar to those observed in 100 nM | 24-28%

Reference: patent US20110183329A1, “PROTEIN PHOSPHATASE-1 INHIBITOR-1 POLYMORPHISM AND METHODS OF USE” (priority 2008, published 2011)
